Results as given in patent US20210115121A1 (UCB, published 2021).
Numbering of substitutions follows the chain as printed. Values joined by “and” are separate entries in the source; they are usually repeats but may differ in a detail not shown here. Equal entries are not always repeated.

Legend:
[1] = target: T1, Tau from human Alzheimer's disease brain (isolated Tau PHF fibrils from Alzheimer's disease patients) (human, UniProt P10636-8 2-441, limits assumed); assay: cell-based or functional assay
[2] = target: Tau from human progressive supranuclear palsy brain (human, UniProt P10636-8 2-441, limits assumed); assay: cell-based or functional assay
[3] = target: Tau from human frontotemporal dementia brain (human, UniProt P10636-8 2-441, limits assumed); assay: cell-based or functional assay
[4] = target: human Tau P301L from brain of P301L Tau transgenic mice (human, UniProt P10636-8 2-441, limits assumed); assay: cell-based or functional assay
[5] = target: T2, monomeric Tau isoform-2 derived from mammalian HEK293 cells (human, UniProt P10636 2-758); assay: SPR, Biacore T200, Tau amine-immobilised, mFab as analyte
T2 construct: also called HEK iso-2; HEK Tau
Experimental: (§1) Absorption at 280 nm was used to determine the concentration of the Fab stock solutions for the BIAcore analysis. An insoluble Tau protein preparation from Alzheimer's disease patients (AD-PHF, fraction 11), the HEK-derived Tau isoform-2 monomers (amino acids 1-441), and the isoform-2 monomers expressed in E. coli were amine immobilized onto the CMS chip, and binding of anti-Tau mFabs was measured with the Biacore T200 instrument. The buffer HBS-EP from GE Healthcare was used for immobilizations apart from the AD-PHF for which 10 mM acetic acid (pH3.0) was used. The HBS-EP+buffer was supplemented with 300 mM NaCl and 1.25% CM-Dextran (Sigma) and used as the assay buffer. While flow cell (Fc) 1 was used as a reference, the following RU values were obtained for Fc2-4: 44 RU with 5 μg/ml E. coli Tau, 56 RU with 5 μg/m HEK Tau, and 500 RU with a 1:20 diluted solution of the AD-PHF material. Two 60 s cycles of 10 mM Glycine (pH1.7) were used for regeneration. Flow rates of 10 μl/min were used for immobilization and regeneration while a 30 μl/min flow rate was used for analyte binding. For AD-PHF, multiple manual injections were applied to reach 500 RU, including EDC/NHS and EtoA capping. Five start-up cycles and 12 cycles per mFab sample or buffer control were applied, using 90 μl analyte injections for either 180 s or 300 s for dissociation. 11 1:3 dilutions of a 600 nM solution plus buffer were used for each mFab. AB1 was analyzed using the BIAcore test.

[6] = target: T3, monomeric Tau isoform-2 expressed in E. coli (human, UniProt P10636 2-758); assay: as above
T3 construct: also called Ecoli iso-2; E. coli Tau
Experimental: as §1

[7] = target: T1, Tau from human Alzheimer's disease …; assay: SPR, Biacore T200, AD-PHF fraction 11 amine-immobilised, mFab as analyte
Experimental: as §1

[8] = target: T4, tau peptide 234-250, N-acetyl-KSPSSAKSRLQTAPVPM-amide (human); assay: X-ray crystallography of the Fab/peptide co-complex
T4 peptide: Ac-KSPSSAKSRLQTAPVPM-NH2
Excerpt: We collected the x-ray diffraction data through a single L14H18 Fab/tau peptide 234-250 crystal. The crystal was suspended in a litho loop and flash frozen under liquid nitrogen, after briefly passing through a cryoprotectant solution containing 30% polyethylene glycol 4000, 0.2M calcium chloride, 0.1M HEPES buffer pH 7.5 and 10% ethylene glycol. The diffraction data was collected on a Pilatis 6M at the 104-1 beamline station at the Diamond synchrotron, Didcot, Oxfordshire, UK. The wavelength of the monochromatic x-ray beam was 0.92819A. The reciprocal space was sampled at 0.2° oscillation steps around the φ goniostat axis. The processed data XIA file provided from the synchrotron facility was used for structure determination
For model building the computer program Coot (Emsley P., Lohkamp B., Scott W. G., Cowton K. Acta Crystallography D Biol Crystallography, 2010 April; 66 (Pt 4): 486-501) was used. Refinement was carried out using the program REFMAC (Murshudov G. N., Skubak P., Lebedev A. A., Pannu N. S., Steiner R. A., Nicholls R. A., Winn M. D., Long F., Vagin A. A. Acta Crystallogr D Biol Crystallogr 2011 April; 67 (Pt 4): 355-67).
The interaction between antibody L14H18 and tau peptide, N-acetyl-[…]-amide (based on human tau isoform 2 sequence 234 to 250), was studied by x-ray crystallography using a co-complex prepared from L14H18 Fab fragment incubated with the peptide. […]

T1 sequence (P10636 other isoform, or with tags, fused parts or gaps limits assumed): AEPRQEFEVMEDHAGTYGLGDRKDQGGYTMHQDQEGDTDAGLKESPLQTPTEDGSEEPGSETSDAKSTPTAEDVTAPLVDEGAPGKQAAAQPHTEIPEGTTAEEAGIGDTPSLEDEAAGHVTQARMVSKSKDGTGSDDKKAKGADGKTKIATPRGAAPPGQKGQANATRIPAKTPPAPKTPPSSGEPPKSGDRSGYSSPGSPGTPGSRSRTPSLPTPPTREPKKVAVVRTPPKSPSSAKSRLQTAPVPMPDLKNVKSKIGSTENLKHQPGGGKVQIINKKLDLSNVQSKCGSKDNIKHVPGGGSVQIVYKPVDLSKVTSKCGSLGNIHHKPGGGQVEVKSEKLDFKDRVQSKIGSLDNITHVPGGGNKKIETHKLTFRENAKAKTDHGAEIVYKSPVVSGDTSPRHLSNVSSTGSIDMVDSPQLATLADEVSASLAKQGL
T3 sequence (P10636 other isoform, or with tags, fused parts or gaps limits assumed): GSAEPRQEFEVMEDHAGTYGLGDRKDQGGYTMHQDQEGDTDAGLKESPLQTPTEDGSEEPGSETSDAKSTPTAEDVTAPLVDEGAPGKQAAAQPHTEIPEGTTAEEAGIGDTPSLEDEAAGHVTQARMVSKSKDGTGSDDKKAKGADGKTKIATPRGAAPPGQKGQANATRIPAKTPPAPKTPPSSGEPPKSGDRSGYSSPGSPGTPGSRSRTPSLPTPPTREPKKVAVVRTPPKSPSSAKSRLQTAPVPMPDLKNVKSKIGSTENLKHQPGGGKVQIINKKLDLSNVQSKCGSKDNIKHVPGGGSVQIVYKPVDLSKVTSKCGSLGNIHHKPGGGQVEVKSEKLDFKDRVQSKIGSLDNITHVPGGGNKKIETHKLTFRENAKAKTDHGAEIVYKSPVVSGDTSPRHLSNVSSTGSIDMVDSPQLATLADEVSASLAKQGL
human Tau P301L from brain of P301L Tau transgenic mice, sequence (P10636 other isoform, or with tags, fused parts or gaps P301L P301L P301L P301L limits assumed): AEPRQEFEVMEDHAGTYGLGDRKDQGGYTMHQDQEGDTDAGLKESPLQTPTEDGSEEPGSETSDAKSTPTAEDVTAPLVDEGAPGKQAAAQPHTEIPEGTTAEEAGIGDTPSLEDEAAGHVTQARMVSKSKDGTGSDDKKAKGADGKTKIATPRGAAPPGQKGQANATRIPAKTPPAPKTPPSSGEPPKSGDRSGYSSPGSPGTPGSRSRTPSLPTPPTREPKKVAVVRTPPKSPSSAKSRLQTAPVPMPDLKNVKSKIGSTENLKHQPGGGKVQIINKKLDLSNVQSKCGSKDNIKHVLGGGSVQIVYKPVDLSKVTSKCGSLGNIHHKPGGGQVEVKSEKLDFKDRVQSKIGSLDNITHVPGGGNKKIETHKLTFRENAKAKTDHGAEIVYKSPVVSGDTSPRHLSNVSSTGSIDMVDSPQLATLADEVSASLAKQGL
Tau from human progressive supranuclear palsy brain, sequence (P10636 other isoform, or with tags, fused parts or gaps limits assumed): as the sequence (P10636 other isoform, or with tags, fused parts or gaps P301L P301L P301L P301L limits assumed) above, with L300P counted along it

B1: Tau-binding antibody having the light chain of SEQ ID No.: 14 and the heavy chain of SEQ ID No.:17 (antibody, human IgG4 S228P, kappa, V domains shown)
VH: EVQLQESGPGLVKPSETLSLTCTVSGFSLTSNDIAWIRQPPGKGLEWMGTIWTDGSTNYNAAVQSRVTISVDTSKNQFSLKLSSVTAADTAVYYCARHRLYYGAFDYWGQGTMVTVSS
VL: DIVMTQTPLSLSVTPGQPASISCRSSQSLEYSDGYTYLEWYLQKPGQSPQLLIYEVSNRFSGVPDRFSGSGSGTDFTLKISRVEAEDVGVYYCFQATHNPYTFGQGTKLEIKR
IC50 (cellular Tau aggregation assay) [1]: 11 nM | Imax (maximal efficacy at 300 nM, cellular Tau aggregation assay) [1]: 98%

B2: Tau-binding antibody having the light chain of SEQ ID No.: 14 and the heavy chain of SEQ ID No.:18 (antibody, human IgG4 S228P, kappa, V domains shown)
VH: B1 VH with A61T
VL: B1 VL
IC50 (cellular Tau aggregation assay) [1]: 12 nM | Imax (maximal efficacy at 300 nM, cellular Tau aggregation assay) [1]: 98% | IC50 (cellular Tau aggregation assay) [2]: 42 nM | Imax (maximal efficacy at 300 nM, cellular Tau aggregation assay) [2]: 100% | IC50 (cellular Tau aggregation assay) [3]: 1 nM | Imax (maximal efficacy at 300 nM, cellular Tau aggregation assay) [3]: 99%

B3: AB1 having a rat VL of SEQ ID NO: 7 and a rat VH of SEQ ID NO.:8 (antibody, IgG1, V domains shown)
VH: EVKLEESGPGLMQPSETLSLTCTVSGFSLTSNDIAWVRQPLGKGLVWMGTIWTDGSTNYNSAVQSRLSISRDTSKSQFFLKMNSLQPEDTGTYYCARHRLYYGAFDYWGQGTMVTVS
VL: DIVMTQTPVSLSVTLGDQASISCRSSQSLEYSDGYTYLEWYLQKPGQSPQLLIYEVSNRFSGVPDRFIGSGSGTDFTLKISRVEPEDLGVYYCFQATHNPYTFGAGTKLEIK
IC50 (cellular Tau aggregation assay) [1]: 4 nM | Imax (maximal efficacy at 300 nM, cellular Tau aggregation assay) [1]: 98% | IC50 (cellular Tau aggregation assay) [4]: 30 nM | Imax (maximal efficacy at 300 nM, cellular Tau aggregation assay) [4]: 89% | IC50 (cellular Tau aggregation assay) [3]: 3 nM | Imax (maximal efficacy at 300 nM, cellular Tau aggregation assay) [3]: 97%

B4: mFab AB1 having a rat VL of SEQ ID No.: 7 and a rat VH of SEQ ID No.: 8 (Fab, V domains shown)
VH: B3 VH
VL: B3 VL
notes: also called AB1 Fab; anti-Tau mFab
Kd [5]: 160 nM and 170 nM | koff [5]: 0.011 s⁻¹ | kon [5]: 70000 M⁻¹ s⁻¹ and 66000 M⁻¹ s⁻¹ | Kd [6]: 160 nM | koff [6]: 0.011 s⁻¹ | kon [6]: 69000 M⁻¹ s⁻¹ and 73000 M⁻¹ s⁻¹ | Kd [7]: 190 nM and 180 nM | koff [7]: 0.0096 s⁻¹ and 0.008 s⁻¹ | kon [7]: 52000 M⁻¹ s⁻¹ and 44000 M⁻¹ s⁻¹

B5: L14H18 Fab (Fab, V domains shown)
VH: B1 VH with A61T
VL: B1 VL
notes: also called L14H18 Fab fragment; L14H18 Fab protein
binding result [8]: binds
